First the molecules themselves.
B1: Nanobody 319 (13F07-40GS-6B05) (VHH)
chain: EVQLVESGGGLVQAGGSLRLSCAASGNTFSTNPMYWYRQAEGKQRELVASISSRGITNYADSVRGRFSISRDNTKDTVYLQMNSLKPEDTAVYYCRLASLSSGTVYWGKGTLVTVSSGGGGSGGGGSGGGGSGGGGSGGGGSGGGGSGGGGSGGGGSEVQLVESGGGLVQPGGSLRLSCAASGSIFSINTMGWYRQAPGKQRELVSTITSNLVPHYADSVQGRFTISRDNARNTVYLQMNSLKPQDTAHYYCNAWARSSGATPYTNYWGQGTLVTVSS
B2: Nanobody 259 (1E11-40GS-5H01) (VHH)
chain: EVQLVESGGGLVQPGGSLRLSCAASGSTRSVNPMAWFRQAPGRQREWVATISRSGYATYADSVKGRFTISGDNAKSSVYLQMNSLKPEDTAVYYCVTGTYWGQGTLVTVSSGGGGSGGGGSGGGGSGGGGSGGGGSGGGGSGGGGSGGGGSEVQLVESGGGLVQPGGSLRLSCAASGSTLDYYAIGWFRQAPGKEREGVSCTSNSGSTYYGGSVKGRFTASRDNAKNTVYLQMNSLRPEDTAVYYCVATIGCATLGGTLDVQRYYYRGQGTLVTVSS
B3: Nanobody 335 (5H01-40GS-1E11) (VHH)
chain: EVQLVESGGGLVQPGGSLRLSCAASGSTLDYYAIGWFRQAPGKEREGVSCTSNSGSTYYGGSVKGRFTASRDNAKNTVYLQMNSLRPEDTAVYYCVATIGCATLGGTLDVQRYYYRGQGTLVTVSSGGGGSGGGGSGGGGSGGGGSGGGGSGGGGSGGGGSGGGGSEVQLVESGGGLVQPGGSLRLSCAASGSTRSVNPMAWFRQAPGRQREWVATISRSGYATYADSVKGRFTISGDNAKSSVYLQMNSLKPEDTAVYYCVTGTYWGQGTLVTVSS
B4: Nanobody 271 (7C10-40GS-14E10) (VHH)
chain: EVQLVESGGGLVQAGGSLRLSCTASGRTLSSYTMGWFRQAPGTEREFVAAMTRSGFNTYYADSVKGRFTISRDSTENTMALQMSSLKPEDTAVYYCTAGRGLTSYRADYWGQGTLVTVSSGGGGSGGGGSGGGGSGGGGSGGGGSGGGGSGGGGSGGGGSEVQLVESGGGLVQPGGSLRLSCAASGRIFSINTMGWYRQAPGKQRELVAGVTINAITNYADSVKGRFTISRDNAKNTVWLQMNSLKPEDTAVYYCHAWARSSGSAPYSQNWGQGTLVTVSS
B5: Nanobody 256 (13F07-40GS-5H01) (VHH)
chain: EVQLVESGGGLVQAGGSLRLSCAASGNTFSTNPMYWYRQAEGKQRELVASISSRGITNYADSVRGRFSISRDNTKDTVYLQMNSLKPEDTAVYYCRLASLSSGTVYWGKGTLVTVSSGGGGSGGGGSGGGGSGGGGSGGGGSGGGGSGGGGSGGGGSEVQLVESGGGLVQPGGSLRLSCAASGSTLDYYAIGWFRQAPGKEREGVSCTSNSGSTYYGGSVKGRFTASRDNAKNTVYLQMNSLRPEDTAVYYCVATIGCATLGGTLDVQRYYYRGQGTLVTVSS
B6: Nanobody 285 (13F07-40GS-2B02) (VHH)
chain: EVQLVESGGGLVQAGGSLRLSCAASGNTFSTNPMYWYRQAEGKQRELVASISSRGITNYADSVRGRFSISRDNTKDTVYLQMNSLKPEDTAVYYCRLASLSSGTVYWGKGTLVTVSSGGGGSGGGGSGGGGSGGGGSGGGGSGGGGSGGGGSGGGGSEVQLVESGGGLVQPGDSLRLSCAASGRILSINNMVWYRQAPGKQRELVAHITSSGSTGYADSVKGRFTISRDNAKNTFYLQMTNLNPEDTAVYYCNCWVSSDSNAPLKNYWGQGTLVTVSS
B7: Nanobody 261 (5H01-40GS-2B10) (VHH)
chain: EVQLVESGGGLVQPGGSLRLSCAASGSTLDYYAIGWFRQAPGKEREGVSCTSNSGSTYYGGSVKGRFTASRDNAKNTVYLQMNSLRPEDTAVYYCVATIGCATLGGTLDVQRYYYRGQGTLVTVSSGGGGSGGGGSGGGGSGGGGSGGGGSGGGGSGGGGSGGGGSEVQLVESGGGLVQPGGSLRLSCAASGSIFSINNMGWYRQAPGKQRELVTVVTSNLITTYADSVKGRFTISRDNAKNTVYLQMNSLKPEDTAVYYCNAWARSVGSVPYSQFWGQGTLVTVSS
B8: Nanobody 275 (2G09-40GS-5H01) (VHH)
chain: EVQLVESGGGLVQPGGSLRLSCAASGSFGDNYELYAMTWFRQAPGERRDFVASVTGDGSTSYADSVKDRFTISRDNAKKLMYLQMNSLKPEDTAVYYCRLLNYWGQGTLVTVSSGGGGSGGGGSGGGGSGGGGSGGGGSGGGGSGGGGSGGGGSEVQLVESGGGLVQPGGSLRLSCAASGSTLDYYAIGWFRQAPGKEREGVSCTSNSGSTYYGGSVKGRFTASRDNAKNTVYLQMNSLRPEDTAVYYCVATIGCATLGGTLDVQRYYYRGQGTLVTVSS
B9: Nanobody 257 (13F07-40GS-2B10) (VHH)
chain: EVQLVESGGGLVQAGGSLRLSCAASGNTFSTNPMYWYRQAEGKQRELVASISSRGITNYADSVRGRFSISRDNTKDTVYLQMNSLKPEDTAVYYCRLASLSSGTVYWGKGTLVTVSSGGGGSGGGGSGGGGSGGGGSGGGGSGGGGSGGGGSGGGGSEVQLVESGGGLVQPGGSLRLSCAASGSIFSINNMGWYRQAPGKQRELVTVVTSNLITTYADSVKGRFTISRDNAKNTVYLQMNSLKPEDTAVYYCNAWARSVGSVPYSQFWGQGTLVTVSS
B10: Nanobody 277 (5H01-40GS-11B09) (VHH)
chain: EVQLVESGGGLVQPGGSLRLSCAASGSTLDYYAIGWFRQAPGKEREGVSCTSNSGSTYYGGSVKGRFTASRDNAKNTVYLQMNSLRPEDTAVYYCVATIGCATLGGTLDVQRYYYRGQGTLVTVSSGGGGSGGGGSGGGGSGGGGSGGGGSGGGGSGGGGSGGGGSEVQLVESGGGLVQAGGSLRLSCAASRLTFNHYNMGWFRQAPGKERERVAEVTWSGDKIYYVDSVKGRFTISRDNTPNPVYLYLQMNSLKPEDTAVYYCATAPRGLPYANGYWGQGTLVTVSS
B11: Nanobody 115 (11B09-40GS-13F07) (VHH)
chain: EVQLVESGGGLVQAGGSLRLSCAASRLTFNHYNMGWFRQAPGKERERVAEVTWSGDKIYYVDSVKGRFTISRDNTPNPVYLYLQMNSLKPEDTAVYYCATAPRGLPYANGYWGQGTLVTVSSGGGGSGGGGSGGGGSGGGGSGGGGSGGGGSGGGGSGGGGSEVQLVESGGGLVQAGGSLRLSCAASGNTFSTNPMYWYRQAEGKQRELVASISSRGITNYADSVRGRFSISRDNTKDTVYLQMNSLKPEDTAVYYCRLASLSSGTVYWGKGTLVTVSS
B12: 1E11-40GS-14B10 (VHH)
chain: EVQLVESGGGLVQPGGSLRLSCAASGSTRSVNPMAWFRQAPGRQREWVATISRSGYATYADSVKGRFTISGDNAKSSVYLQMNSLKPEDTAVYYCVTGTYWGQGTLVTVSSGGGGSGGGGSGGGGSGGGGSGGGGSGGGGSGGGGSGGGGSEVQLVESGGGLVQPGGSLRLSCAASGRIFSINNMGWYHQAPGKQRELVATITMNGITTYADSVKGRFTISRDNAKNTVYLQMNSLKPEDTAVYYCSCWVRSSGGDPYRDYWGQGTQVTVSS
B13: 5E02-40GS-1E11 (VHH)
chain: EVQLVESGGGLVQPGGSLRLSCAASGITLDSIAICWFRQAPGKEREGVSCSRGSDGSTYYADSVKGRFTISRVNAKNTVYLQMNSLKPEDTAVYYCAAAPSIFYSGGYFPSGMDYWGKGTQVTVSSGGGGSGGGGSGGGGSGGGGSGGGGSGGGGSGGGGSGGGGSEVQLVESGGGLVQPGGSLRLSCAASGSTRSVNPMAWFRQAPGRQREWVATISRSGYATYADSVKGRFTISGDNAKSSVYLQMNSLKPEDTAVYYCVTGTYWGQGTLVTVSS
B14: 1E11-40GS-5E02 (VHH)
chain: EVQLVESGGGLVQPGGSLRLSCAASGSTRSVNPMAWFRQAPGRQREWVATISRSGYATYADSVKGRFTISGDNAKSSVYLQMNSLKPEDTAVYYCVTGTYWGQGTLVTVSSGGGGSGGGGSGGGGSGGGGSGGGGSGGGGSGGGGSGGGGSEVQLVESGGGLVQPGGSLRLSCAASGITLDSIAICWFRQAPGKEREGVSCSRGSDGSTYYADSVKGRFTISRVNAKNTVYLQMNSLKPEDTAVYYCAAAPSIFYSGGYFPSGMDYWGKGTQVTVSS
B15: 3E10-40GS-5H01 (VHH)
chain: EVQLVESGGGLVQAGGSLRLSCTASGHTFSSYTMGWFRQAPGKEREFVAAMTRSGFNTHYSDSVKGRFTISRDNTSRDNTKITMALQMNSLKPEDTAVYYCTTGRGLTSYVANFWGQGTQVTVSSGGGGSGGGGSGGGGSGGGGSGGGGSGGGGSGGGGSGGGGSEVQLVESGGGLVQPGGSLRLSCAASGSTLDYYAIGWFRQAPGKEREGVSCTSNSGSTYYGGSVKGRFTASRDNAKNTVYLQMNSLRPEDTAVYYCVATIGCATLGGTLDVQRYYYRGQGTQVTVSS
B16: 1E11-40GS-4G10 (VHH)
chain: EVQLVESGGGLVQPGGSLRLSCAASGSTRSVNPMAWFRQAPGRQREWVATISRSGYATYADSVKGRFTISGDNAKSSVYLQMNSLKPEDTAVYYCVTGTYWGQGTLVTVSSGGGGSGGGGSGGGGSGGGGSGGGGSGGGGSGGGGSGGGGSEVQLVESGGGLVQAGGSLRLSCVISEDGVRNYDMGWFRQAPGKEREFVATINWSGGSTNYADSVKGRFTVSRDNAKNTMYLQMDSLKPEDTAVYYCVAAGFYNNYLRTAPNDWNDWGQGTQVTVSS
B17: 5E02-40GS-14E10 (VHH)
chain: EVQLVESGGGLVQPGGSLRLSCAASGITLDSIAICWFRQAPGKEREGVSCSRGSDGSTYYADSVKGRFTISRVNAKNTVYLQMNSLKPEDTAVYYCAAAPSIFYSGGYFPSGMDYWGKGTQVTVSSGGGGSGGGGSGGGGSGGGGSGGGGSGGGGSGGGGSGGGGSEVQLVESGGGLVQPGGSLRLSCAASGRIFSINTMGWYRQAPGKQRELVAGVTINAITNYADSVKGRFTISRDNAKNTVWLQMNSLKPEDTAVYYCHAWARSSGSAPYSQNWGQGTQVTVSS

Several values for one entry are separate records, joined by “and”; a condition that tells them apart may be missing. Equal values may be shown once.

In one assay the target is different PcrV variants and reference strain PAO1 (23 PcrV sequence variants, GST-PcrV-His6).
Test: not given
In the case of B1, the concentration giving a half-maximal response (EC50) was 0.08 nM and 0.1 nM.
B2: the 50% effective concentration (EC50) is 0.01 nM and 0.02 nM.
The same measure, in the same setting: in the case of B3 it was 0.07 nM and 0.09 nM.
Same read-out and setting: in the case of B4 it was 0.06 nM and 0.1 nM; in that of B5, 0.07 nM and 0.1 nM.
As for B6, the EC50 is 0.1 nM.
In the case of B7, the EC50 is 0.06 nM and 0.07 nM.
As for B8, the concentration for a half-maximal effect (EC50) was 0.6 nM and 0.9 nM.
Turning to B9, the EC50 is 0.07 nM and 0.09 nM.
Same read-out and setting: then B10, with 0.07 nM and 0.1 nM.

The target of the next assay is PcrV of P. aeruginosa strain PA103 (on TTSS-induced bacteria) (Pseudomonas aeruginosa strain PA103). Put plainly: cell-based or functional assay.
In turn, B11 came in with a % inhibition in P3X63 cytotoxicity assay, extract 1/150 of 82%.
Same read-out and setting: in the case of B12 it was 52%; in that of B13, 60%; in that of B14, 44%.
Molecule B15 yielded a % inhibition in P3X63 cytotoxicity assay, extract 1/150 of 85%.
B16 yielded a % inhibition in P3X63 cytotoxicity assay, extract 1/150 of 67%.
Take B17: the % inhibition in P3X63 cytotoxicity assay, extract 1/150 was 48%.

The record behind these values is patent US20190055322A1.
